Test results as given in publication PMC10028609.

Experiments:
[1] = biological target: His6-MBP-OspR fusion (Kamptonema sp. (formerly Oscillatoria) PCC 6506)
[2] = biological target: OspR, untagged (peptide arginase from Kamptonema sp. PCC 6506) (Kamptonema sp. (formerly Oscillatoria) PCC 6506); assay: SEC; analytical size exclusion chromatography of OspR in solution (Figure S18); conditions in the SI
[3] = biological target: His6-MBP-OspR fusion (Kamptonema sp. (formerly Oscillatoria) PCC 6506); remark: listed apart in the source

His6-OspA^MD, fully cyclized-and-epimerized OspA precursor protein (natural protein)
KM of OspR toward cyclized-and-epimerized OspA^MD, Michaelis–Menten kinetics by urea detection assay (50 mM TRIS-HCl pH 8.5, 1 mM MnCl2, 25 °C) [1]: 6.33 μM

OspR, untagged (peptide arginase from Kamptonema sp. PCC 6506) (enzyme)
stoichiometry N [2]: 2

His6-OspA precursor protein, unmodified (natural protein)
KM of OspR toward unmodified OspA, Michaelis–Menten kinetics by urea detection assay (50 mM TRIS-HCl pH 8.5, 1 mM MnCl2, 25 °C) [3]: 9.01 μM
